Ends that are not written are not given here.
Molecular target: the molecule itself
Assay: dynamic light scattering; free peptide without lipid; DLS at 20 °C in CD buffer (10 mM Na-phosphate, 100 mM Na2SO4, pH 7.0); the methods give 20 or 40 µM peptide for the DLS samples

B1: Temporin-La (peptide)
peptide: LLRHVVKILEKYL-NH2
notes: 13 residues; MW = 1622.6 as printed in the methods; also called Tempo-La; TEMPO-LA; source: synthetic peptide (NovoPro Bioscience Inc., Shanghai; purity >= 95%)
B1: binds.
